The assay deals with chromoshadow domain of HP1α (HP1αCSD, aa 109–185 of HP1α) (human, UniProt P45973 109-185).
chromoshadow domain of HP1α (HP1αCSD, aa 109–185 of HP1α), sequence (P45973 109-185): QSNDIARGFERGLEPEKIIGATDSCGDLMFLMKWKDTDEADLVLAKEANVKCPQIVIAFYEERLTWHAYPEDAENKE

RKVPRVSLERL [HP1 box-containing KAP1 peptide (KAP1_(Hbox), aa 483–493 of KAP1)] came in with a Kd of 1600 nM.

A word on the Kd: it is a measure of binding affinity in units of concentration. Read a high Kd as a looser complex.
